Measurements as given in publication PMC11597096, “Unite and Conquer: Association of Two G-Quadruplex Aptamers Provides Antiproliferative and Antimigration Activity for Cells from High-Grade Glioma Patients”.

Biological target: PARP1 (Homo sapiens, UniProt P09874 1-1014)
Test: BLI; no competitor; kon 6.6 ± 0.34 (10^5 M-1 s-1), koff 1.28 ± 0.04 (printed as 10^2; 10^-2 s-1 implied); BLI: 1x PBS pH 7.4, 25 °C, SAX biosensors, biotinylated oligo loaded at 2 uM, PARP1 2.5-162 nM. Pull-down: 25 mM Tris-HCl pH 7.4, 150 mM NaCl, 1 mM EDTA, 1% NP-40, 5% glycerol, 0.1 mM DTT, room temperature
Conditions: protein: recombinant; label: 5'-biotin; bi-modular G4 with parallel chain stacking

Sequence of PARP1 (P09874 whole entry): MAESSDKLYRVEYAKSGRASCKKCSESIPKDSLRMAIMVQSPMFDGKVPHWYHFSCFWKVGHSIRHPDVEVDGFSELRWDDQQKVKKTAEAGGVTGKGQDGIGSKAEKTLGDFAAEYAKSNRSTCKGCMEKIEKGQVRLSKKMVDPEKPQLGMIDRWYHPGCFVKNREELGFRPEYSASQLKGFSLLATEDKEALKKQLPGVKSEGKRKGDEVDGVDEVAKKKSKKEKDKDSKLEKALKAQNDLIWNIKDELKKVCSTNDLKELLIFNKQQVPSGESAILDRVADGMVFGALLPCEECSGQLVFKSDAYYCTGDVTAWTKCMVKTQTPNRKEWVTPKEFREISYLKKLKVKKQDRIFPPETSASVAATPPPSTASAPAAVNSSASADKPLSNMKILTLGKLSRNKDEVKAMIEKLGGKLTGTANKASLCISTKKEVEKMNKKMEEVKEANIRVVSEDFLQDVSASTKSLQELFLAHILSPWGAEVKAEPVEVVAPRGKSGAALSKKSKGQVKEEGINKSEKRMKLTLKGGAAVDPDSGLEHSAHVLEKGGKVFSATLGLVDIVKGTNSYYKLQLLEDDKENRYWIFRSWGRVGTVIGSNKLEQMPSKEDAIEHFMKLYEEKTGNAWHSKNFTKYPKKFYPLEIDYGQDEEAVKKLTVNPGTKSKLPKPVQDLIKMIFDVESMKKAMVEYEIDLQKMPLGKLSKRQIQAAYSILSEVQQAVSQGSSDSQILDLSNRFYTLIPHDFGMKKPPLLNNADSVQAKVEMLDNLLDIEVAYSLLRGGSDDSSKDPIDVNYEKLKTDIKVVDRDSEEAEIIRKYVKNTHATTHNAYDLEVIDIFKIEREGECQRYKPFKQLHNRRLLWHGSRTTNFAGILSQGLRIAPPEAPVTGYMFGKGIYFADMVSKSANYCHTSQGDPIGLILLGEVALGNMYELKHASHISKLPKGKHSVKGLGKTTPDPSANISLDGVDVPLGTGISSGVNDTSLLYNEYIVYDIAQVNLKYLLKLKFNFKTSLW

GGGTGGGTGGGTGGGTTTGGGTGGGTGGGTGGG (structured_DNA) [bi-(AID-1-T)]
Kd: 19.4 ± 0.7 nM
